Laboratory results: FireProtDB (doi:10.1093/protein/12.10.841)
“And” between values parts separate entries of the source, which are not always exact repeats. Identical values can stand only once.

B1: Lysozyme C, P61626 (parent)
chain: MKALIVLGLVLLSVTVQGKVFERCELARTLKRLGMDGYRGISLANWMCLAKWESGYNTRATNYNAGDRSTDYGIFQINSRYWCNDGKTPGAVNACHLSCSALLQDNIADAVACAKRVVRDPQGIRAWVAWRNRCQNRDVRQYVQGCGV

Variants of: B1
Details: Homo sapiens; pH 2.7; 64.9 °C; Thermal; DSC; glycine 0.05 M; reversible: yes; structure 1LZ1; whole UniProt chain shown

Variant | ddG of mutation (higher = less stable) [kcal/mol]
I74F | 4.09
I74M | 1.77
I74V | 1.2
I74T | 3.63
I74L | 0.1
I77T | 2.22

Same assay, conditions: Homo sapiens; pH 2.7; Thermal; DSC; glycine 0.05 M; reversible: yes; structure 1LZ1; whole UniProt chain shown

Variant | change of melting temperature, mutant - wild type (higher = more stable) [°C] | heat capacity change of unfolding | unfolding enthalpy (calorimetric) | unfolding enthalpy (van 't Hoff) | Tm
I74F | -15 | 1.82 kcal/mol/K | 102 kcal/mol | 106 kcal/mol | 
I74M | -5.8 | 1.63 kcal/mol/K and 1.53 kcal/mol/K | 97.3 kcal/mol and 106 kcal/mol | 107 kcal/mol and 115 kcal/mol | 
I74V | -3.6 | 1.34 kcal/mol/K | 114 kcal/mol | 117 kcal/mol | 61.3 °C and 64.9 °C
I74T | -12.5 | 1.08 kcal/mol/K | 102 kcal/mol | 108 kcal/mol | 
I74A |  |  |  |  | 64.9 °C
I74G | -2.7 |  |  |  | 62.2 °C
I74L | -0.3 | 1.41 kcal/mol/K | 107 kcal/mol | 119 kcal/mol | 64.6 °C and 64.9 °C
I77T |  |  |  |  | 64.9 °C
I77M | -4.2 | 1.27 kcal/mol/K | 106 kcal/mol | 115 kcal/mol | 60.7 °C and 64.9 °C

Same assay, conditions: Homo sapiens; pH 2.75; Thermal; DSC; glycine 0.05 M; reversible: yes; structure 1LZ1; whole UniProt chain shown

Variant | Tm [°C] | heat capacity change of unfolding [kcal/mol/K] | unfolding enthalpy (calorimetric) [kcal/mol] | unfolding enthalpy (van 't Hoff) [kcal/mol]
I74F | 50.8 | 1.89 | 76 | 79.3

Same assay, conditions: Homo sapiens; pH 3.06; Thermal; DSC; glycine 0.05 M; reversible: yes; structure 1LZ1; whole UniProt chain shown

Variant | Tm [°C] | heat capacity change of unfolding [kcal/mol/K] | unfolding enthalpy (calorimetric) [kcal/mol] | unfolding enthalpy (van 't Hoff) [kcal/mol]
I74F | 56.3 | 1.77 | 86 | 89.6

Same assay, conditions: Homo sapiens; pH 2.54; Thermal; DSC; glycine 0.05 M; reversible: yes; structure 1LZ1; whole UniProt chain shown

Variant | Tm [°C] | heat capacity change of unfolding [kcal/mol/K] | unfolding enthalpy (calorimetric) [kcal/mol] | unfolding enthalpy (van 't Hoff) [kcal/mol]
I74M | 56.3 | 1.39 | 92.5 | 103

Same assay, conditions: Homo sapiens; pH 2.83; Thermal; DSC; glycine 0.05 M; reversible: yes; structure 1LZ1; whole UniProt chain shown

Variant | Tm [°C] | heat capacity change of unfolding [kcal/mol/K] | unfolding enthalpy (calorimetric) [kcal/mol] | unfolding enthalpy (van 't Hoff) [kcal/mol]
I74M | 61.3 | 1.72 | 101 | 110

Same assay, conditions: Homo sapiens; pH 3.02; Thermal; DSC; glycine 0.05 M; reversible: yes; structure 1LZ1; whole UniProt chain shown

Variant | Tm [°C] | heat capacity change of unfolding [kcal/mol/K] | unfolding enthalpy (calorimetric) [kcal/mol] | unfolding enthalpy (van 't Hoff) [kcal/mol]
I74M | 64.2 | 1.43 | 105 | 113

Same assay, conditions: Homo sapiens; pH 3.11; Thermal; DSC; glycine 0.05 M; reversible: yes; structure 1LZ1; whole UniProt chain shown

Variant | Tm [°C] | heat capacity change of unfolding [kcal/mol/K] | unfolding enthalpy (calorimetric) [kcal/mol] | unfolding enthalpy (van 't Hoff) [kcal/mol]
I74M | 65.9 | 1.53 | 107 | 116

Same assay, conditions: Homo sapiens; pH 2.48; Thermal; DSC; glycine 0.05 M; reversible: yes; structure 1LZ1; whole UniProt chain shown

Variant | Tm [°C] | heat capacity change of unfolding [kcal/mol/K] | unfolding enthalpy (calorimetric) [kcal/mol] | unfolding enthalpy (van 't Hoff) [kcal/mol]
I74L | 61.2 | 1.41 | 103 | 113

Same assay, conditions: Homo sapiens; pH 2.65; Thermal; DSC; glycine 0.05 M; reversible: yes; structure 1LZ1; whole UniProt chain shown

Variant | Tm [°C] | heat capacity change of unfolding [kcal/mol/K] | unfolding enthalpy (calorimetric) [kcal/mol] | unfolding enthalpy (van 't Hoff) [kcal/mol]
I74L | 64 | 1.55 | 105 | 119
I77M | 59.9 | 1 | 98.5 | 108

Same assay, conditions: Homo sapiens; pH 2.96; Thermal; DSC; glycine 0.05 M; reversible: yes; structure 1LZ1; whole UniProt chain shown

Variant | Tm [°C] | heat capacity change of unfolding [kcal/mol/K] | unfolding enthalpy (calorimetric) [kcal/mol] | unfolding enthalpy (van 't Hoff) [kcal/mol]
I74L | 68.7 | 1.27 | 112 | 125

Same assay, conditions: Homo sapiens; pH 2.4; Thermal; DSC; glycine 0.05 M; reversible: yes; structure 1LZ1; whole UniProt chain shown

Variant | Tm [°C] | heat capacity change of unfolding [kcal/mol/K] | unfolding enthalpy (calorimetric) [kcal/mol] | unfolding enthalpy (van 't Hoff) [kcal/mol]
I77T | 52.9 | 1.65 | 90.3 | 98.7

Same assay, conditions: Homo sapiens; pH 2.62; Thermal; DSC; glycine 0.05 M; reversible: yes; structure 1LZ1; whole UniProt chain shown

Variant | Tm [°C] | heat capacity change of unfolding [kcal/mol/K] | unfolding enthalpy (calorimetric) [kcal/mol] | unfolding enthalpy (van 't Hoff) [kcal/mol]
I77T | 56.9 | 1.67 | 104 | 105

Same assay, conditions: Homo sapiens; pH 2.8; Thermal; DSC; glycine 0.05 M; reversible: yes; structure 1LZ1; whole UniProt chain shown

Variant | Tm [°C] | heat capacity change of unfolding [kcal/mol/K] | unfolding enthalpy (calorimetric) [kcal/mol] | unfolding enthalpy (van 't Hoff) [kcal/mol]
I77T | 59.5 | 1.17 | 106 | 110
I77M | 62 | 1.2 | 103 | 110

Same assay, conditions: Homo sapiens; pH 2.99; Thermal; DSC; glycine 0.05 M; reversible: yes; structure 1LZ1; whole UniProt chain shown

Variant | Tm [°C] | heat capacity change of unfolding [kcal/mol/K] | unfolding enthalpy (calorimetric) [kcal/mol] | unfolding enthalpy (van 't Hoff) [kcal/mol]
I77T | 62.9 | 1.39 | 107 | 107

Same assay, conditions: Homo sapiens; pH 3.15; Thermal; DSC; glycine 0.05 M; reversible: yes; structure 1LZ1; whole UniProt chain shown

Variant | Tm [°C] | heat capacity change of unfolding [kcal/mol/K] | unfolding enthalpy (calorimetric) [kcal/mol] | unfolding enthalpy (van 't Hoff) [kcal/mol]
I77T | 64.9 | 1.2 | 111 | 119

Same assay, conditions: Homo sapiens; pH 2.95; Thermal; DSC; glycine 0.05 M; reversible: yes; structure 1LZ1; whole UniProt chain shown

Variant | Tm [°C] | heat capacity change of unfolding [kcal/mol/K] | unfolding enthalpy (calorimetric) [kcal/mol] | unfolding enthalpy (van 't Hoff) [kcal/mol]
I77M | 64.8 | 1.1 | 106 | 114

Same assay, conditions: Homo sapiens; pH 3.13; Thermal; DSC; glycine 0.05 M; reversible: yes; structure 1LZ1; whole UniProt chain shown

Variant | Tm [°C] | heat capacity change of unfolding [kcal/mol/K] | unfolding enthalpy (calorimetric) [kcal/mol] | unfolding enthalpy (van 't Hoff) [kcal/mol]
I77M | 66.5 | 1.15 | 107 | 117
